We go through 1 molecule from patent US20220267442A1.

The experiment addresses recombinant human TGF-β1 (human) (UniProt P01137). Put plainly: cell-based or functional assay.

recombinant human TGF-β1 (human), sequence (P01137 279-390 limits assumed): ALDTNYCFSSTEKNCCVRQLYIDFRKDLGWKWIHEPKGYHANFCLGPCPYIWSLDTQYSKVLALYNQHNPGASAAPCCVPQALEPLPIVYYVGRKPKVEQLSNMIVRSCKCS

B1: anti-TGF-β (αTGF-β, 1D11 clone) (antibody, from another filing, V domains shown)
VH: QVQLQQSGPELVRPGASVKLSCKASGYIFITYWMNWVKQRPGQGLEWIGQIFPASGSTNYNEMFEGKATLTVDTSSSTAYMQLSSLTSEDSAVYYCARGDGNYALDAMDYWGQGTSVTVSS
VL: DIVLTQSPASLAVSLGQRATISCRASESVDSYGNSFMHWYQQKSGQPPKLLIYLASNLESGVPARFSGSGSRTDFTLTIDPVEADDAATYYCQQNNEDPLTFGAGTKLEIK
Consider B1, for which the 80% maximal inhibition (IC80), TGF-β signaling reporter assay (TGF-β/SMAD luciferase in HEK293 cells, 10 ng/mL recombinant human TGF-β1) was 25 nM.
